The test has as its target T1, GAL DBD-SMRT (RD III+IV), pGBT9-hSMRT (1060-1831) (human, UniProt P04386 1-147; Q9Y618 1060-1831).
T1 construct: domain: GAL DBD;range 1060-1831; Bait of the yeast two-hybrid screen and assays in strain Y190; also called SMRT repression domains III and IV; SMRT RD III and IV
The test can be described thus: yeast two-hybrid, growth on -Trp-Leu-His+40 mM 3-AT plates. The method, then:
(Verdel and Khochbin, 1999, supra)). A series of AD-HDAC constructs were generated for interaction assays in yeast. Transformants harboring both plasmids were picked and patched onto nutrient selection plates. Only cells that contain plasmids carrying an interacting partner are able to activate reporter gene HIS3 and therefore are viable in the selection plate -Trp-Leu-His+40 mM 3-AT. […] After three days, two isolated colonies were picked, resuspended in water, and […] were dropped on both -Trp-Leu and -Trp-Leu-His+40 mM 3-AT plates. Pictures were taken after three days.

B1: AD-HDAC3 (deacetylase domain of HDAC3, GAL AD fusion) (enzyme, UniProt O15379 3-316, looked up, not shown: large carriers)
chain: KTVAYFYDPDVGNFHYGAGHPMKPHRLALTHSLVLHYGLYKKMIVFKPYQASQHDMCRFHSEDYIDFLQRVSPTNMQGFTKSLNAFNVGDDCPVFPGLFEFCSRYTGASLQGATQLNNKICDIAINWAGGLHHAKKFEASGFCYVNDIVIGILELLKYHPRVLYIDIDIHHGDGVQEAFYLTDRVMTVSFHKYGNYFFPGTGDMYEVGAESGRYYCLNVPLRDGIDDQSYKHLFQPVINQVVDFYQPTCIVLQCGADSLGCDRLGCFNLSIRGHGECVEYVKSFNIPLLVLGGGGYTVRNVARCWTYETSLLVE
notes: domain: deacetylase domain
With B1, the binding result is listed as “no binding”.

B2: AD-HDAC1 (deacetylase domain of HDAC1, GAL AD fusion) (enzyme, UniProt Q13547 9-321, looked up, not shown: large carriers)
chain: RKVCYYYDGDVGNYYYGQGHPMKPHRIRMTHNLLLNYGLYRKMEIYRPHKANAEEMTKYHSDDYIKFLRSIRPDNMSEYSKQMQRFNVGEDCPVFDGLFEFCQLSTGGSVASAVKLNKQQTDIAVNWAGGLHHAKKSEASGFCYVNDIVLAILELLKYHQRVLYIDIDIHHGDGVEEAFYTTDRVMTVSFHKYGEYFPGTGDLRDIGAGKGKYYAVNYPLRDGIDDESYEAIFKPVMSKVMEMFQPSAVVLQCGSDSLSGDRLGCFNLTIKGHAKCVEFVKSFNLPMLMLGGGGYTIRNVARCWTYETAVALD
notes: domain: deacetylase domain
As for B2, the binding result is recorded as “no binding”.

The values above are taken from patent US6673587B1, “Histone deacetylase, and uses therefor” (The Salk Institute for Biological Studies, priority 2000, dated 2004).
